Target: T1, Zur (zinc uptake repressor), purified (UniProt P9WN85 1-130)
T1 sequence: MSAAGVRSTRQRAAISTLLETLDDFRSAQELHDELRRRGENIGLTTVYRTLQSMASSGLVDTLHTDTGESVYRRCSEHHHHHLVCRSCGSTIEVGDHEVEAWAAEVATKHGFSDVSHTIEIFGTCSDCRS
Assay: SPR; Biacore 3000; […] (200 nM) […]; running buffer 10 mM HEPES pH 7.4, 150 mM NaCl, 50 mM EDTA, 0.005% surfactant P20
Details: both partners purified

B1: CmtR, His-tagged, purified (natural protein)
chain: MLTCEMRESALARLGRALADPTRCRILVALLDGVCYPGQLAAHLGLTRSNVSNHLSCLRGCGLVVATYEGRQVRYALADSHLARALGELVQVVLAVDTDQPCVAERAASGEAVEMTGS
notes: also called His-tagged CmtR
- binding result: binds

Source: article PMC7863910, “A novel stress-inducible CmtR-ESX3-Zn^2+ regulatory pathway essential for survival of Mycobacterium bovis under oxidative stress” (The Journal of Biological Chemistry, 2020)
